One assay deals with T1, human Sema 3A protein (human, UniProt Q14563 21-771, limits assumed).
T1 construct: also called Human Sema 3A antigen; human-derived Sema 3A protein
T1 sequence (looked up): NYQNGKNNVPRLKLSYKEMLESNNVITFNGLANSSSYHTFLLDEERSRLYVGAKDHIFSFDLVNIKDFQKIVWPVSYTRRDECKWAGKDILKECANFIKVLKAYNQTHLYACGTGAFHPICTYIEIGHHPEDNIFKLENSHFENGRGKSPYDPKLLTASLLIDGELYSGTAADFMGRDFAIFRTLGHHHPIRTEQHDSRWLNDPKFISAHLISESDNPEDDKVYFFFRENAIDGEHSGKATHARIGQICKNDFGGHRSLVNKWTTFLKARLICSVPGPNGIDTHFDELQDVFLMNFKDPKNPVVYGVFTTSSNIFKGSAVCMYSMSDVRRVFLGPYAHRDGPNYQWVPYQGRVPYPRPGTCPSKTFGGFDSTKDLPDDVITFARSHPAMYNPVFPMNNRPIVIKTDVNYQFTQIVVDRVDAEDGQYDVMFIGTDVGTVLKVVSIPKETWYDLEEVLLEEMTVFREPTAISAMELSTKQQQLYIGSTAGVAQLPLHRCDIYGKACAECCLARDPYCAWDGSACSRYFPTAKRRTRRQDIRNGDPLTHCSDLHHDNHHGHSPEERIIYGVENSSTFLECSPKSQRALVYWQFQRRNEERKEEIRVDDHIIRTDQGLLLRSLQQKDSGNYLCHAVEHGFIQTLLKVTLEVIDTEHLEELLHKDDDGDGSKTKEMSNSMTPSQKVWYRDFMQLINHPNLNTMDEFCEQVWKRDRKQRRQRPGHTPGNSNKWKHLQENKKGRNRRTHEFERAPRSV
As to the kind of experiment: competitive ELISA on plate-coated human Sema 3A; competitor biotin-labelled avian-mouse chimeric antibody (clone No. 4-2) at 60 ng/mL. As for the experimental part: (§1) The obtained clone No. 4-2-derived avian-mouse chimeric antibody in Example 1, the obtained humanized antibodies in Example 2 (Humanized-1 and Humanized-2) and avian-human chimeric antibody were subjected to competitive ELISA to evaluate affinity to the antigen. CL18M (+) avian-mouse chimeric antibody, which served as a negative control, was also measured for affinity to the antigen. Particular measurement conditions were as follows.
(§2) Firstly, 2.5 μg/mL of antigen (mouse and human Sema 3A protein) was dispensed into a 384 Well MaxiSorp Plate (Nunc) and reacted overnight at 4° C. in order to coat the plate with the antigen. The next day, the plate was washed three times with 50 μL/well of washing solution (PBS containing 0.05% Tween 20), to which was added 25 μL/well of blocking solution (PBS containing 1% bovine serum albumin) and the mixture was reacted for 30 minutes. Each of humanized antibodies (Humanized-1 and Humanized-2), avian-human chimeric antibody and avian-mouse chimeric antibody was subjected to serial doubling dilution, to which was mixed anti-Sema 3A avian-mouse chimeric antibody labeled with biotin to the final concentration of 60 ng/mL, and the mixture was reacted with the antigen solid phase plate which was washed three times with 50 μL/well of washing solution for one hour. The plate was washed five times with 50 μL/well of washing solution, to which was added 20 μL/well of diluent in which streptavidin labeled with horseradish peroxidase (HRP) (Thermo Fisher Scientific K.K.) was diluted 10000 times with PBS buffer and the mixture was reacted for 30 minutes. The plate was washed five times with 50 μL/well of washing solution, to which was added 20 μL/well of TMB+(Dako) and the mixture was chromogenically reacted for 20 minutes. Subsequently, to the each well was added 20 μL, of 1M sulfuric acid to quench the reaction. The absorbance was measured at 450 nm using Infinite M1000 (Tecan Trading AG).
A general note: In an ELISA, binding on a coated surface is turned into a signal by an enzyme label.

For another assay, the target named is T2, mouse Sema 3A protein (mouse, UniProt O08665 21-772, limits assumed).
T2 construct: Produced from mouse Sema 3A protein expressing cells; also called Mouse Sema 3A antigen
T2 sequence (looked up): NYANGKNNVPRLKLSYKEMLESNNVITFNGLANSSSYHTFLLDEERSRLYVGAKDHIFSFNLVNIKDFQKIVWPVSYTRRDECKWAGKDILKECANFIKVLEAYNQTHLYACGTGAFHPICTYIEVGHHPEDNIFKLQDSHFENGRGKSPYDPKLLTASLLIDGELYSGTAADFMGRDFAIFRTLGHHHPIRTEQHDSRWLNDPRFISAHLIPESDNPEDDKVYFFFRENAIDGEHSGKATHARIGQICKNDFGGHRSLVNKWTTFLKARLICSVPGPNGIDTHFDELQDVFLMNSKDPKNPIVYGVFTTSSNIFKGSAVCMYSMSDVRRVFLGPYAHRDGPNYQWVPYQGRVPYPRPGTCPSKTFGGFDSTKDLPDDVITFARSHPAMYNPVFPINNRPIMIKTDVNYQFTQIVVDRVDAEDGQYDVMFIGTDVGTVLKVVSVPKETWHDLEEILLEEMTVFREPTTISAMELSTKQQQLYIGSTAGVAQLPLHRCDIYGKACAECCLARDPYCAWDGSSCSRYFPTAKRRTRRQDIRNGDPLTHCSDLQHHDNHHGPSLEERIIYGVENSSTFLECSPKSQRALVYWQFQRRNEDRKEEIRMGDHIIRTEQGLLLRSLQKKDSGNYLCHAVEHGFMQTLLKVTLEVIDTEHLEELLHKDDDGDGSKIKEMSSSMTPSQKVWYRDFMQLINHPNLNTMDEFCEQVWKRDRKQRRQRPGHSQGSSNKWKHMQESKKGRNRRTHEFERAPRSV
Nature of the assay: competitive ELISA on plate-coated mouse Sema 3A; competitor biotin-labelled avian-mouse chimeric antibody (clone No. 4-2) at 60 ng/mL. Here is the method:
as §1, §2

B1: Anti-Sema 3A avian-mouse chimeric antibody (clone No. 4-2-derived) (antibody, mouse IgG2a)
heavy: AVTLDESGGGLQTPGGALSLVCKASGFTFSSYPMGWVRQAPGKGLEWVAGIDDDGDSDTRYAPAVKGRATISRDNGQSTVRLQLNNLRAEDTGTYYCAKHTGIGANSAGSIDAWGHGTEVIVSSAKTTAPSVYPLAPVCGDTTGSSVTLGCLVKGYFPEPVTLTWNSGSLSSGVHTFPAVLQSDLYTLSSSVTVTSSTWPSQSITCNVAHPASSTKVDKKIEPRGPTIKPCPPCKCPAPNLLGGPSVFIFPPKIKDVLMISLSPIVTCVVVDVSEDDPDVQISWFVNNVEVHTAQTQTHREDYNSTLRVVSALPIQHQDWMSGKEFKCKVNNKDLPAPIERTISKPKGSVRAPQVYVLPPPEEEMTKKQVTLTCMVTDFMPEDIYVEWTNNGKTELNYKNTEPVLDSDGSYFMYSKLRVEKKNWVERNSYSCSVVHEGLHNHHTTKSFSRTPGK
light: ALTQPASVSANLGGTVKITCSGGGSYTGSYYYGWYQQKSPGSALVTMIYYNNKRPSDIPSRFSGSLSGSTNTLTITGVRADDEAVYFCGSADNSGDAFGAGTTLTVLGQPKSSPSVTLFPPSSEELETNKATLVCTITDFYPGVVTVDWKVDGTPVTQGMETTQPSKQSNNKYMASSYLTLTARAWERHSSYSCQVTHEGHTVEKSLSRADCS
notes: Avian variable regions of clone No. 4-2 with mouse IgG2a heavy and mouse lambda light constant regions; also called anti-Sema 3A avian-mouse chimeric antibody (IgG)
A word on the IC50: it is the concentration that gives 50% inhibition. A high value points to weaker potency in that assay. For B1, the 50% inhibitory concentration (IC50) with human Sema 3A protein came out at 0.074 µg/mL; with mouse Sema 3A protein, 0.147 µg/mL.

The values above are taken from patent publication US20150368327A1 (YOKOHAMA CITY UNIVERSITY, published 2015).
